Test results: PMC9006252

Molecular target: Plasmodium falciparum plasmoredoxin (Plasmodium falciparum)
Assay: SEC; PfPlrx without TCEP, at least partially oxidized

Q: Which stoichiometry N does the source give for “Plasmodium falciparum plasmoredoxin (natural protein)” here?
A: The stoichiometry N was 2.
